# Measured values published in patent publication US20090117593A1, “T. Cruzi-derived neurotrophic agents and methods of use therefor” (Tufts University, priority 2006, published 2009).
# B1: CNTF: human ciliary neurotrophic factor; recombinant human and rat CNTF (protein, UniProt P26441 1-200, looked up)
# Ciliary neurotrophic factor: MAFTEHSPLTPHRRDLCSRSIWLARKIRSDLTALTESYVKHQGLNKNINLDSADGMPVASTDQWSELTEAERLQENLQAYRTFHVLLARLLEDQQVHFTPTEGDFHQAIHTLLLQVAAFAYQIEELMILLEYKIPRNEADGMPINVGDGGLFEKKLWGLKVLQELSQWTVRSIHDLRFISSHQTGIPARGSHYIANNKKM
# Legend:
# [1] = system: PC12 cells; test: Protection of PC12 cells from apoptosis induced by trophic factor withdrawal (DAPI, TUNEL); type: cell-based; details: serum-free RPMI-1640/0.2% BSA, 17 hours, DAPI or TUNEL
# From the text: PC12 cells were obtained from ATCC (Manassas, Va. (Accession No. CRL-1721)) and cultured on collagen-coated dishes in RPMI 1640 supplemented with 10% horse serum and 5% fetal bovine serum (Greene, L., and Tishler, A., Proc. Natl. Acad. Sci. USA, 73:2424-2428 (1976)). For differentiation and survival experiments, cells were washed three times in serum-free RPMI/0.2% BSA, plated in the same medium in collagen-coated plastic dishes at 2×10^5/ml, without and with growth factors, TS, recombinant proteins, synthetic peptides, for the time and concentrations indicated in the Figures.
# Cell staining with 4,6-diamino-2-phenylindole (DAPI). Cells were fixed with 4% formaldehyde in PBS for 5 minutes, washed with PBS, stained with 10 μg/ml DAPI (Sigma) for 2 minutes, washed with PBS, and visualized under UV light using a fluorescent microscope. About 300-400 cells were examined under the microscope to determine the percentage of apoptotic cells.
# Cell DNA nick end labeling (TUNEL) (Gavrieli, Y. et al., J. Cell. Biol., 119:493-501 (1992)) assay was performed using a kit purchased from Boehringer Mannheim as described by the manufacturer.
# Protection against apoptosis of PC12 cells in serum-free medium containing a test agent (agent N) (e.g., protection induced by TS, TS fragments, NGF or other growth factors), was calculated by the formula: 100%−[(apoptosis(%) of cells kept in RPMI containing test agent N÷apoptosis (%) of cells kept in RPMI)×100%]. Testing the effect of Wortmannin (Sigma) and LY294002 (Sigma) in inhibiting the neuroprotection of TS was performed following the protocol described by others (Yao, R., and Cooper, G., Science, 267:2003-2006 (1995); D'Mello, et al., J. Neurosci., 17:1548-1560 (1997)). In brief, PC12 cells were switched from growth medium to RPMI without and with TS or various other growth factors. After 24 hours, Wortmannin and LY294002 were added to the cultures. After another 24 hours, cells were examined for apoptosis by the DAPI assay, as above.
# [2] = system: Bcl-2; test: Bcl-2 gene expression in PC12 cells by RT-PCR; type: cell-based, rat; details: TS 2.5 ng/ml, CNTF 50 ng/ml, alone or combined, 17 hours
# Description: Total RNA was extracted from PC12 cells by the acid guanidinum isothiocyanate method (Chomchinski, P., Biotechniques, 15:532-535 (1993)) using TRI-reagent (Molecular Research Center, Inc.) cDNA synthesis was performed according to the instruction of the manufacturer (Gibco-BRL). Reverse transcription reactions were carried out for 50 minutes at 42° C. and were heated to 70° C. for 15 minutes to terminate the reaction using a MiniCycler (MJ Research). Samples were cooled to 4° C. and stored at −20° C. until use.
# PCR reactions were performed in 50 μl containing 1.5 μl of template DNA (corresponding to cDNA synthesized from 100 ng of total RNA), 1×PCR buffer, 100 μM of deoxynucleotides, 2.5 mM MgCl2, 10 mM DTT, 10 μM of Bcl-2 primers, and 2 U of Taq DNA polymerase (Gibco-BRL). The synthetic DNA primers for the rat Bcl-2 were: 5′-[…]-3′ (SEQ ID NO:8) and 5′-[…]-3′ (SEQ ID NO:9) to give a PCR product of 566 bp. The sequences for synthetic GAPDH DNA primers (Wong, H. et al., Anal. Biochem., 223: 251-258 (1994)) were: 5′-[…]-3′ (SEQ ID NO:10) and 5′-[…]-3′ (SEQ ID NO:11) giving a PCR produce of 306 base pairs. […] Gels were analyzed by computerized densitometric scanning using Gel doc 1000 (Bio Rad) and Molecular Analyst Software, version 2.1.
molecule,measurement,setting,value
B1,protection of PC12 cells from apoptosis induced by trophic factor withdrawal,[1],"produced little, if any, protection"
same,bcl-2 mRNA expression in PC12 cells,[2],did not induce bcl-2 gene expression individually
